We go through 20 sequences from the DeepSol protein solubility set.

The data set can be described thus: soluble on expression in E. coli; label from the status in PepcDB or PDB records.
Regarding “MEALLKEAFLEALKATDPYRLTAKHLPPWRPDLVLAVGKAAAPMLQAALDRYGEVPYHLTLPKGQKAPGLKAVFARHPVPDEESVRAAEEVLGLLQGLSPRARVLALLSGGGSALWCAPLGISLEEKRALTEALLKSGASIHEMNAVRKHLSQIKGGRALLATRAKVHVLLLSDVPGDDPSVIASGPFHPDPTTYAEALALLDRYGLAFPGARAVLRQGVEGRLPETLKPQDPALRRLAWRLVGTNLHLLRAAQRFLRARGFRAAVLSDRFGGEARALARFHAELIEAIRAHGVPFRKPLFLLSGGEAQVRVVGRGRGGRNLEFLLALYAHLKTPLYALAADSDGLDGNSGAAGALLTPAVWEKGLDPRPFLEENDSLGFFQEAGTLLKTGPTGTNLNDFRLLLVD”, the “soluble on expression in E. coli” value is reported as “soluble”.

“MTDDKKIRAAIVGYGNIGRYALQALREAPDFEIAGIVRRNPAEVPFELQPFRVVSDIEQLESVDVALVCSPSREVERTALEILKKGICTADSFDIHDGILALRRSLGDAAGKSGAAAVIASGWDPGSDSVVRTLMQAIVPKGITYTNFGPGMSMGHTVAVKAIDGVKAALSMTIPLGTGVHRRMVYVELLPGHNLEEVSAAIKADEYFVHDETHVIQVDEVDALIDMGHGVRMVRKGVSGSTQNQRMSFDMEINNPALTGQVLVCAARAAMRQQPGAYTLQEIPVIDLLPGDREQWIGKLC”: the “soluble on expression in E. coli” value was “soluble”.

As for “MRQHKTKYLHQYELQALLNELNLNNEVNWDYFILLIAKTGIRFAEALGVTPDDFDFAHQTLSISKTWDYKSNKSDFAPTKNNSSVRKVPLDWQTVIQFSQLTKKLPEDQPIFVQAKVYNDTVNHYLERLCKHASIPVISVHGLRHTHASLLLYAGVSIASVARRLGHSNMTTTQQTYLHIIQELENQDNDKVMKHLASLILEHHHHHH”, the “soluble on expression in E. coli” value is reported as “soluble”.

Turning to “MGSSHHHHHHGKTIFVIVPTNEEQVAFLEALAKQDELNFDWQNPPTEPGQPVVILIPSDMVEWFLEMLKAKGIPFTVYVEEGGSENLYFQGGGGGGPFRYQISEYFERQRDGVHVELRRKAVKYYAEMERMHRRQALVNLESIQDDNAPHRLSAVLSVESIQAGHLDQEYNYWYAHERDAIRAEKLMMEIRELKAKMPADSA”, the “soluble on expression in E. coli” value was “not soluble”.

Consider “MGHHHHHHSHMPYLVIEHLEDISEWLLLEYKHVAQWWGDKLIFTNVKPKERKILAEIGSVVTESITKLPVDRSKVIVLDLQAKEELKPEDISEDTIIVVGGILGDAIPRGRTRKLITSKMEGVKVRHIGRPQFSIDGASIIAKLISEGKRLEEIEYEENPTIKLDEFSEITFHYAVPKLNGKLLLTPGLIELQKKELGYLEEDEDDGLIEFFEGKGEL”, for which the “soluble on expression in E. coli” value is on record as “soluble”.

Turning to “SLKCLVLTGISRNVIEELMRRNIRTIELRSAHNVATALKAEPGDCVFLTPARINDLGRGVSGLVAEVRGKEVMSQSLFYQSPSYIEESELTVVRLMLKPKSLGRLVQVKRGAFLETIEGDVVEMSYFDAR”, the “soluble on expression in E. coli” value was “soluble”.

Regarding “MAEKALATLKELAFLEDPSPVERDAAIQRFEYTFEAFWKALQAYLREKEGLEGASPKGVIRLAREVGLLRDEEARLALGMVDDRSLTVHTYNEPLARAIFRRLPDYARLMEQVLGRLRR”, the “soluble on expression in E. coli” value is listed as “soluble”.

In the case of “MQNTTHDNVILELTVRNHPGVMTHVCGLFARRAFNVEGILCLPIQDSDKSHIWLLVNDDQRLEQMISQIDKLEDVVKVQRNQSDPTMFNKIAVFFQ”, the “soluble on expression in E. coli” value is “not soluble”.

Turning to “MKTQVVINAKIYTGQEVVENGFIRYAETIKEIGLMAQYVSQENETVLDAAGKIVIPGMIDVHIHGGYDIDAMDANSDGLVTLGKEMLKEGVTTYFPTTMTQAPEAIEAALHAAKEAKEKGAHFEYIHLEGPYVSKKRAGAQPLEHIVPANIEQFKQWQEASGNLIKLVTYAPEEEGALEFEQYLAETGVVGTMGHTDAIDAQLKNRNITHATHLYNQMRGLHHREPGVVGHVLLNPDVMVEVITDGIHIHPDMVKLAYKLKGPKKVSVITDAMRAKGLEDGLYELGGQPVHVKDGSARLEDGTLAGSILKMDQAFRNVIEFTGCSIEDAVLMTSVNQAEEFGLNNKGALAVGKDADFVVMNEDLHVYDTVRLGIHMKEGK”, the “soluble on expression in E. coli” value was “not soluble”.

Consider “MAHHHHHHMVRKVWIGQGDVVLVSKRSFNKNDIVDVIHRYNPAEVRALVKDEVIPRDFRSSDERDAKNAHSDYVFVAENDDDGGADDDDQNVLDRNKVVLDDPLATFDEL”, for which the “soluble on expression in E. coli” value is “not soluble”.

Regarding “KHLPQILCEAMTREAETMAMPDPKLPEEINRTFMQTYADVEQLVPPAKVDRHGSVCIYLPSPASSEEAEANLSWEEQILQDLPRFIIGLQKRGYAPSDIAILVRKTYQAREIARAMLSYQPEPDEEDYPLIPMSDESLSLSGAASIRFLSNLLKFISRPQSDALRQIAYLSYEELRKEKGLAPTEEGNFSAAELAEFANLRRRSLYELAEGLVSFFHSYLPEREMPYLIAWLDLINDFGHERSADLHSFLQWWDETGHAKSRISSAPNSQAVTLMTIHKAKGLGFRVVLIPFLDWNLDDEAAHRHILWCKIDPARSPFNILPVVPIRYKKEMAQTMFATDYFRERADILLDNLNLLYVATTRAKDEMHLWLHPSQKPESLSTVGDLIHLALASLDENKTESDMYCWGSPVISARQKTTDHPSSGLPFTLPKGSLSAVADRLAIRPEGSEFYRRHKPLYHGHVMHRILADIVLAKDIEPALERYVSGGIVTRDEAIELVDRLSVVTSDSRLSRWFDGSGRVLNEQDILLPEGEQRRPDRIILYDDHTDIVDYKFGAVRKVHHAQMENYIRLLVSMGYPSVRGYLWYLPNNEIVGVRSVRGITRSKGEERKEGKGERGIERKAK”, the “soluble on expression in E. coli” value was “not soluble”.

As to “MRYGFMKVAAAVPFVKVADCEYNIERIDRMVHEADAKGVEIMTFPELSITGYSCGDLFFQPFLQERANEALCRLVEQTANTTVMVIVGMPLRVEEKLFNSAVVFQQGKILGAIPKTYLPNYREFQEARWFSPAHTLQYSTISIGQHSVPIGRNLIFKCGTVGVGIEICEDMWTPFTPGTRLCLYGAEVIFNLSSSNENAGKHSYLRSLISGLSSQGICAYVYASSGYGESSTDIVFTGKAFIAEAGEIVEEMERFRYEERMIISDIDVSRIQTERLINSSFKAAVTFHTHDEKFNQLPFKLRSRQESLPMTRRVDRNPFMPEDKDRKERSREMINIQVCGLMQRLLHMGAEHAVIGISGGLDSALALIVCAQAFDRLDLPRKNIIAVTMPGFGTSDRTYRNAFALMEAIGVTIKEIDIKEACLRHFEAIGHNPEVQDTTFENTQARERTQILMNLANIYNAPVIGTGDLSELALGWVTYNGDHMSMYAVNAGIAKTTVQILVDHIAHSGWLDEAASAVLLDIVRTPISPELKPVGQLEHHHHHH”, the “soluble on expression in E. coli” value was “not soluble”.

For the sequence “MSLKDINIGVVLPLTGTVAAYGQDVFNGIELANKLQPKLSNGDVIKLITIDTKGDKLETSNGVNRLIATDKVLGIIGEATTPNTIQAISIAEEKKIPLIAPVASGDKLLDKKKYASRVCFKDSFQGDKFATYVSKDLGLKNAVIIIDQSNVYSLGLARAFENSFKNNGGKIIKKLVINSGDKDFRAVVSQLKSLNPDFVYMPIYHPEAALIARQARQIGFDKLLVAGDGVNNQTFIDLGGSAVNGVIFTDSFDYNSPSTQLGKDFVAAYEKVKGTKELPAFSAMGADAYFVMLNAMNACVDNLSSECINSKIHQTKDFQAVGGVISIDESGNAIRSVVIKEIQNQKQNYKTIINEGHHHHHH”, the “soluble on expression in E. coli” value is reported as “soluble”.

Turning to “MQQQILERIEDCYQQAEAYFKRAFPRPTTQFTLRGRSAGTAHLQQNRLRFNPVLLRENSEAFLAEVVPHEISHLLCFQIFGKTKPHGREWQSIMLKLFKISPNTTHNFDTQSVKGKDVEYRCACGPIRLGIRRHNKVLRGETRYLCKRCHTHLTLALEHHHHHH”, the “soluble on expression in E. coli” value is “not soluble”.

With “MSLGPTSKAISRNVRSVKRPRRAPRPVVSTQAMNKLSNVTLSAEQEKLRERVLSFMRSNLSQYKSDWKHPAMFVIQGDAGTGKSVILNSLFNEIQKLSQFSPSSEDILHGTHNYLVVNHPEMLKLYIRISDSFKYISKSSLERPTSLINNLQKRKVMADVVIVDEAHLLATSKDAFKRFYGENHLKDLMSLCKVLVLVYDDKQALRMGSYWDEGSNNGATLKDFYNEIPPKSRDWYTLKQQFRVAAPQNVLNWIDQISVAGKIPPIESVLSKGNADCADDKIKNFDFKIWDDCGAMYEAIKEKDRQYGQCRMLSTYDFPYRLDGKDYYVECGDNFKVRWDRYTPREVTPWSERCDTIDEVGSVYTIQGFDLNYAGVILGRSIGYDAANDCIKLRPELYDDRAGFTKKKNIHNAEDVKQKIIMNSINVLLTRGVRGLYVYAYDPELRERLLRPSKEGHHHHHH”, the “soluble on expression in E. coli” value is recorded as “soluble”.

As to “MGKNLLREKKRLIRQKILFLTGENESWMKNPEIVKEVQRLSKQLESDLIADKRPLPSLDPDKLTKEKYQHFLDLGYQVGDIKKALGLGTTTFQNWRKANGIENKINRKQKKEESKLMKFNIHTASLLLPGTFGAEGKECITISKSGLALSGPVVRRLNKPEWIQLYLDESRLALFVIPCKATDEGARSCVNPKSKKKAGYRKSWSGSILEKVAKASKMDIENHRYHVEPESVEGYPTALGFDLTKAVKN”, the “soluble on expression in E. coli” value is on record as “not soluble”.

“MGSSHHHHHHSSGLVPRGSHMKARELDVPGAWEITPTIHVDSRGLFFEWLTDHGFRAFAGHSLDVRQVNCSVSSAGVLRGLHFAQLPPSQAKYVTCVSGSVFDVVVDIREGSPTFGRWDSVLLDDQDRRTIYVSEGLAHGFLALQDNSTVMYLCSAEYNPQREHTICATDPTLAVDWPLVDGAAPSLSDRDAAAPSFEDVRASGLLPRWEQTQRFIGEMRGTGSV”: the “soluble on expression in E. coli” value was “soluble”.

In the case of “MGSDKIHHHHHHANAAKKDDAKFKPAADRDGPRWRTGIEGQRIADLGDGRFLNPVLSGDYPDPSVLKDGDDYYMTHSSFDSAPGLLIWHSRDLVNWRPLGPALAKPLGTVFAVDIAKHDGRYFIYIPFMKAPWSTDLPSFANTFVIHAPSMEGPWSDPIDLKVGGLIDPGHVVGEDGHRYLFFNDGKRVRLTADGLATDGPVETAYQAWRYPDDWITEAYSPEGPKLFRRGDYFYLVNAVGGTSGPATGHMIVAARSRSIHGPWENCPHNPIQRTHSRQEMWWSRGHATCVEGPGGQWYMVYHGYENGYHTLGRQTLVEPIEWTPDGWFRATGGDLSEPLRKPRGPAQPHGMAHSDSFHTDRLGTLWNLYGSAPAETARIAIGDGALTLKAKGKGPSDGVVLTQQVGDRSYEVSVELELTDKTSGGLLLFFDDRLFLGMGIDGHRMTTWRGGKASYWPEPAPPARRIFMRITNQEQVVTFYYSLDGKNWTRHGVRSEVTGYNANTVDNLLSLRPALYAAGEGEVLFRNFTYRALA”, the “soluble on expression in E. coli” value is “not soluble”.

As to “MVTVRYYATLRPITKKKEETFNGISKISELLERLKVEYGSEFTKQMYDGNNLFKNVIILVNGNNITSMKGLDTEIKDDDKIDLFPPVAGG”, the “soluble on expression in E. coli” value is “soluble”.

Consider “MGSDKIHHHHHHMLYRQKVLLALIDVFGGTIDRLYLQKMLFLLSQRQEKPIYEFVPYYYGGFSFTAQWDINALFRKGFLAVDKHTVTLVQKHPQLFDSVTERDMHFLHELCQQYRYKARNDLLRELYEQYPYYAQQSKILDEILDDEAKRRIKQCQDEESRIVLFTIGYEGRSLENYLNTLIRNGIKILVDVRNNPVSMKPGFSKSQLRTYCENLGIGYIHIPEVGIVSELRKNLKSQEDYEELFAAYRREILPTTVSFQQRILNILLCYHRIALTCFEAESQRCHRSHLADAISKLPEFSYEVVHL”, for which the “soluble on expression in E. coli” value is recorded as “not soluble”.
